# In article PMC6126765 (Proceedings of the National Academy of Sciences of the …, 2018):
# B1: MBP-tagged truncated mouse TRPM7 (amino acids 1 to 1280) (domain or fragment)
# chain: MSQKSWIESTLTKRECVYIIPSSKDPHRCLPGCQICQQLVRCFCGRLVKQHACFTASLAMKYSDVKLGEHFNQAIEEWSVEKHTEQSPTDAYGVINFQGGSHSYRAKYVRLSYDTKPEIILQLLLKEWQMELPKLVISVHGGMQKFELHPRIKQLLGKGLIKAAVTTGAWILTGGVNTGVAKHVGDALKEHASRSSRKICTIGIAPWGVIENRNDLVGRDVVAPYQTLLNPLSKLNVLNNLHSHFILVDDGTVGKYGAEVRLRRELEKTINQQRIHARIGQGVPVVALIFEGGPNVILTVLEYLQESPPVPVVVCEGTGRAADLLAYIHKQTEEGGNLPDAAEPDIISTIKKTFNFGQSEAVHLFQTMMECMKKKELITVFHIGSEDHQDIDVAILTALLKGTNASAFDQLILTLAWDRVDIAKNHVFVYGQQWLVGSLEQAMLDALVMDRVSFVKLLIENGVSMHKFLTIPRLEELYNTKQGPTNPMLFHLIRDVKQGNLPPGYKITLIDIGLVIEYLMGGTYRCTYTRKRFRLIYNSLGGNNRRSGRNTSSSTPQLRKSHETFGNRADKKEKMRHNHFIKTAQPYRPKMDASMEEGKKKRTKDEIVDIDDPETKRFPYPLNELLIWACLMKRQVMARFLWQHGEESMAKALVACKIYRSMAYEAKQSDLVDDTSEELKQYSNDFGQLAVELLEQSFRQDETMAMKLLTYELKNWSNSTCLKLAVSSRLRPFVAHTCTQMLLSDMWMGRLNMRKNSWYKVILSILVPPAILMLEYKTKAEMSHIPQSQDAHQMTMEDSENNFHNITEEIPMEVFKEVKILDSSDGKNEMEIHIKSKKLPITRKFYAFYHAPIVKFWFNTLAYLGFLMLYTFVVLVKMEQLPSVQEWIVIAYIFTYAIEKVREVFMSEAGKISQKIKVWFSDYFNVSDTIAIISFFVGFGLRFGAKWNYINAYDNHVFVAGRLIYCLNIIFWYVRLLDFLAVNQQAGPYVMMIGKMVANMFYIVVIMALVLLSFGVPRKAILYPHEEPSWSLAKDIVFHPYWMIFGEVYAYEIDVCANDSTLPTICGPGTWLTPFLQAVYLFVQYIIMVNLLIAFFNNVYLQVKAISNIVWKYQRYHFIMAYHEKPVLPPPLIILSHIVSLFCCVCKRRKKDKTSDGPKLFLTEEDQKKLHDFEEQCVEMYFDEKDDKFNSGSEERIRVTFERVEQMSIQIKEVGDRVNYIKRSLQSLDSQIGHLQDLSALTVDTLKTLTAQKASEASKVHNEITRELSISKHLAQNLID
# Target: the molecule itself
# Assay: cryo-EM structure
protein,measurement,value
B1,stoichiometry N,4
